# Source: IntAct's records for PubMed 17357085
# B1: Homeobox protein SIX5 (Homo sapiens), Q8N196 (parent)
# chain: MATLPAEPSAGPAAGGEAVAAAAATEEEEEEARQLLQTLQAAEGEAAAAAGAGAGAAAAGAEGPGSPGVPGSPPEAASEPPTGLRFSPEQVACVCEALLQAGHAGRLSRFLGALPPAERLRGSDPVLRARALVAFQRGEYAELYRLLESRPFPAAHHAFLQDLYLRARYHEAERARGRALGAVDKYRLRKKFPLPKTIWDGEETVYCFKERSRAALKACYRGNRYPTPDEKRRLATLTGLSLTQVSNWFKNRRQRDRTGAGGGAPCKSESDGNPTTEDESSRSPEDLERGAAPVSAEAAAQGSIFLAGTGPPAPCPASSSILVNGSFLAASGSPAVLLNGGPVIINGLALGEASSLGPLLLTGGGGAPPPQPSPQGASETKTSLVLDPQTGEVRLEEAQSEAPETKGAQVAAPGPALGEEVLGPLAQVVPGPPTAATFPLPPGPVPAVAAPQVVPLSPPPGYPTGLSPTSPLLNLPQVVPTSQVVTLPQAVGPLQLLAAGPGSPVKVAAAAGPANVHLINSGVGVTALQLPSATAPGNFLLANPVSGSPIVTGVALQQGKIILTATFPTSMLVSQVLPPAPGLALPLKPETAISVPEGGLPVAPSPALPEAHALGTLSAQQPPPAAATTSSTSLPFSPDSPGLLPNFPAPPPEGLMLSPAAVPVWSAGLELSAGTEGLLEAEKGLGTQAPHTVLRLPDPDPEGLLLGATAGGEVDEGLEAEAKVLTQLQSVPVEEPLEL
# partner: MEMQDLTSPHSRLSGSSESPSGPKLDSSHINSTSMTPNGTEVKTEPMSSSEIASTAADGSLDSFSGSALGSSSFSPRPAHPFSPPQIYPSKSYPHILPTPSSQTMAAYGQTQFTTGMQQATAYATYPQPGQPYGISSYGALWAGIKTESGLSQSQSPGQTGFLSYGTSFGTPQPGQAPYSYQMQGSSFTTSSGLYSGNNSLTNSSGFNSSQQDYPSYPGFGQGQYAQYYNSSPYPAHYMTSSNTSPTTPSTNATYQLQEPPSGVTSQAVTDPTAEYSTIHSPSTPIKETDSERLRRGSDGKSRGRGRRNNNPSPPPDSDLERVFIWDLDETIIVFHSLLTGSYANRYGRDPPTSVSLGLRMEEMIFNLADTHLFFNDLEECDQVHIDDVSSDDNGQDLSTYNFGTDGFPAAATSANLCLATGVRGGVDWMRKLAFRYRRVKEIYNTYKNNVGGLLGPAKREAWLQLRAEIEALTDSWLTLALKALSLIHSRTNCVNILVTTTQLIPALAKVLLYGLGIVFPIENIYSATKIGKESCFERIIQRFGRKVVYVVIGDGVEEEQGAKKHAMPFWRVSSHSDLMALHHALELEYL
# Variants of: B1
# Details: with eya1_mouse Eya1, P97767
row,Variant,effect of a mutation on the interaction
1,T552M,decreasing interaction
2,A158T,decreasing interaction
